Source: the DeepSol protein solubility set

Test: soluble on expression in E. coli; label from the status in PepcDB or PDB records

Soluble on expression in E. coli, not soluble:
MGSDKIHHHHHHKHIVIMMTFKQDILPIIEALCSEGYHVTVIGKKIYQKDINNINHAYFIPAGNKYIMRHMKVLSKAKIIILDTYYLMMGGYQKKKGQTVIQTWHAAGALKNFGLTDHQVDLKNKAMVRQYKKVYDATDYYLVGGEKMAQCFIQSFDASPSQMLKFGLPRLTQYFRSNLKLEQQRLKKKYHITNKLAVYVPTYREGQVAQRTIDKENFERHLPNYTLLSHLHPSTVDCQTSHSIDVTSLLIMADIIISDYSSLPIEASALNKPTLIYNYDEQQYEKVRGLNEFYYAIPERYKMSNEESIIQAIQDNDEQFQSLFNDWHQYNSKDSLNQLVHFINKLVK, MGSDKIHHHHHHKSTDYELKYSYAKKYFNAKQYSKSATLLDELVTIFKGTAYAEESLYLLAQSYYGQKDYQTASQYFETYYTTYPKGEFTELSRFYSGYGLYLDSPDPRLDQSQTYKAIEQLQLYLEYYPQSERAEEAQNIMFELQEKLAYKELMATRLYFNLGTYMGNNFQSCVITAQNALKNYPYSKYREEFMFLIIRAKYELALVSVEEKLQGRYRDVVDEYYNYMNEYPEGNYVKQVTKFYDYASKRITDAY, MGSDKIHHHHHHKSVHPYWSQVEQGVKAAGKALGVDTKFFVPQKEDINAQLQMLESFIAEGVNGIAIAPSDPTAVIPTIKKALEMGIPVVTLDTDSPDSGRYVYIGTDNYQAGYTAGLIMKELLGGKGKVVIGTGSLTAMNSLQRIQGFKDAIKDSEIEIVDILNDEEDGARAVSLAEAALNAHPDLDAFFGVYAYNGPAQALVVKNAGKVGKVKIVCFDTTPDILQYVKEGVIQATMGQRPYMMGYLSVTVLYLMNKIGVQNTLMMLPKVKVDGKVDYVIDTGVDVVTPENLDEYLKKMEELGIPIKF, MGSDKIHHHHHHKVEDLVQIATALEVDTIVLNDELSPSQLTNLEKETNLHFIDRTGLILEIFANRAHSREAKLQVELAKLQYQLPRLRTSSTQRLDQQTAGNTGGGFTNRGSGETKLELNRRTIRNKINHINKELKEMTTSSDIQRKQRDKKDIPSVALVGYTNTGKSTTMNGLVRMYGRNEDKQVFEKDMLFATLDTSVRKLTFPDQKELVLSDTVGFVSHLPHQLVKAFRSTLAEAAKADLLVQIVDISDPHYREMMQTTEDTLNEIGVTDIPMIYAFNKADLAGVSYPTLDGNELTYSAKQLQSLEMVTALIKKQVFKNYVEAKFLIPFNEGQVVDFLNGNADVKKTDYTEEGTEITAELKEKDYQRLARYVIQ, MGSDKIHHHHHHLEISLNEIIDYYAKADVSFVGAFGERVSPQLKVLDRHTNPAGGGLVIPFSGSACFTFDGKPYVIEPGMVVHAGPGMRLSKEVIGDREWEYAVIHYHIPQHERDEYPLFHKDFSLAHGRSAKVPHLVRQILDIQSIPGAAAKFQTKVLFLSLLQEIFTAACGQPGQENSKLIEEAMGYIRLNYADELTVQKVADEFSVERRQFSYLFKRHTGMSPIHYLIECRISKAKELLGSPGCSVKQVAEWVGYTDSLYFSKAFKKYTGVSPSEYREGFAL, MGSDKIHHHHHHLINVAETTGLQTKAFVGEADFQIVDYAGDKCIQFKNDSVFNAMLWEMNDMSEEERNNIFSGAGFVSQWQLMQEADQEQELIVDNYEKDLSQPWPAHQIKEFKQKYDDVFMFEPYDSTDFIAHYKLKGSTYSSFVNRRGVFLIGDSVAHAPVYKALEEYFGSGISLYGNNEATNEKNDINLAESKYQIPGGDYVKVRAIPRFIELQTIENKNYLSLGFDYLSQKKKVLWKKHRTMIILRLTASGSGSGFEVYNVSIKNYQNKNGVTILLHTDVYNKLLAKDQGGMLGHVGENPRNSVTIVTPPRFEFSGRMEIWSDEMPESNKGTAKISLKEDW, MGSDKIHHHHHHLLPKYNILTEDQVQKIHENTMKILEEIGIEFEYEPALEVFRREGQKVEGKRVYLTREFVESKLKSAPAEFTLHARNPENNVVIGGDNIVFMPGYGAPFIYELDGSRRKTTLQDYENFAKLAGASKNMHLSGGTMAEPQDIPDGVRHLQMLYSSIKNSDKCFMGSAEGKERAEDSVEIAAILFGGKDVIKEKPVLVSLINSLTPLKYDERMLGALMAYAEAGQAVIIASLVMAGSTGPASLAGTLSLQNAEVLAGISLAQSINPGTPVIYGSTSALSDMRSGSLSIGSPECALFISASAQLARFYGVPSRSGGGLNDSKTVDAQAGYESMMTLMAANLTGVNFVLHTAGILQYFMAMSYEKFIMDDEIAGMLLHYMKGYTFDEDGMAFDVIEKVGPGGHFLTQKHTRKNHKREFYTPTLSDRSAYDTWAKEKLETKQRAHARWQQILANYVPPALDPEIDAKLQAFIAQRGKEVGEE, MGSDKIHHHHHHLQVSEMEMLITLSEELNMRRAAERLFVSQPALSQRLVAIERRWATKLFIRSSRGLSITPQGEKVIGLAKEMNRKELELKSELTAEEGAVYGTLRIAVASIMGQYWLPRVLKRFVERYPHVRVQLVTGWSSEMMRHMLEEHFHIGIIRGNPDWKGVKERLFSDPLYLVDSELTSLEQLRKTERPFIQFKSDSTYYQEILEWWQDRFSSPPARTLVVDQIETCKQMALHGIGFAILPESTIHEASEVMQIPLKTSSGKILKRDTWILSTESMLELKQVQAFWDIVKEEGGSQSDGIRN, MGSDKIHHHHHHLRTNTVKVALVGCGRIAGHHARSIVATDGVQLAAVCDLAEDKALAYSNEFGVPSYTDYRRMLAEHPEISVVAVITPSGMHSEHGLEMMERFGKHIILEKPTMMRPEQLVHAWGVADRLNLSIFPVFQNRHNKAVTRVRQALAAGELGEIRIMSVRVRWCRPQRYYDLAPWRGTFSHDGGALTNQGIHHVDLLRHLGGEVDQVSATMRTLGADIEVEDTVVATMRYRSQAVGVLEVTTAARPDDFEASISIVGEKGLAQIGGIAVNELQVFTPDPAACAANSEDFKSFEGNGAVYGFGHSQMYRDIAAHFHQGKAYPVSREDCLGTLKLLHAFYRSDEAAGGWVDVDSPEQSTRLGRPDDAISNLYRTPLHG, MGSDKIHHHHHHLSREARYLEEARGFYQSGKFSSAGIYARKVIRREPSNGEAQALLGHLAFRSGEHQEAMSCYLKAQAAGFQDQELRLNLVTLHERREAFFDAVNLLRELVEETPQDLSLQLRLGINASRTGDMTTAESALLAALAGDEQAAQASLNLGHVYKAKGDTDKAAAFYHDYIRLAPSQQATAYWSLADLKNYRFTEQDEAALKANIAAEEFSQASQSLFHFALNRVYEQRKQGEQAFDAVRMANQLMRPLRPFKREAFTRLVDSLKSAEVKPRGEETSGPWTPIFIVGMPRSGTTLCEQILASHSQIAATDELPFMERLALSLEMKGGYGAMLPRLSEEQIAQMRQQYIEQVNQYLKAQGEASPSLVPSLVIDKNPNNFIHIGLIKTLFPEAKIINVIRDARDNAMGVYKQHFSHGHDYSYHLDDICHYWQLYLELMAHWQQAYGDSLYHLCFEQLVKAPDQQIPAMVDYVGLALEPACLKFYESKRSVLTPSASQVRRPMNVKAIGQSEAYAAFIPNAYRTLTVIADRAHKSFLS, MGSDKIHHHHHHLSSPQYRINMQKYVFRIHPLNTYQLSFFPNYEVNMYKKLNPMIGDRVYRSKGLVMHVGVMVDRDLVAHNSPDNNVEVISMEHFSQGKKVELKRSIGVDPTALKAQLQRISEENRRYCPISFNCEHFANELLGTKDGSEQLLAALLVGSFGLTCKNKWLGLATAGATGLLLCNGLRKYSTT, MGSDKIHHHHHHLTKKITEFQNDEEMELFVLIKSAEKRVTKAGKDFISMKFQDRSGDIHGNCWDAKEEDFKNFQPGRVVLLRGKRETYKNAPQVKIMAMRLATDEEPNDPTAYTEKGPVSAEKLREEFTQLMFEINNPDWNRVVRYLLKKYDREFFSFPAAKTNHHAFEGGLAFHTLSIVNLAKSVAAQYEQVDQSLLIAGAILHDLGKTIELSGPIATQYTVEGNLLGHIVIVDEEIVEAAKDLKIDPSSESMVVLRHMIVAHHGLKEYGSPVEPHMLEAVILHALDELDAEIQMVSGALKNTQPGAFSERIFGMDGRNFYKPESK, MGSDKIHHHHHHLYTYLQYIQSSVQTDVGFCVDGAKNLENMYESTKAVGSGPVKRQAGYGASSPSRASGSHPAPSPYDAASTSSSSSSDSCCSCGIGLAGPAGFPGRPGRDGIDGPAGKPGRDGQDLDGESSSDGSQIELDCPAGPPGPPGNPGPQGNSGRPGMDGMPGRNGRCGRPGEQGERGPNGEDGRPGRRGDDGMPGTVNEIPGQAGPPGLRGAPGATGSQGPRGNDGRPGNKGPAGPPGDQGFDGAPGGPGADGEPGAQGPLGAKGECSHCPPPRTAPGY, MGSDKIHHHHHHMAAGRDTALLMMNLMNAPVPLSPALELALPVDTAVVGVGYFGSLHALCYSRLPGSRLQALIDPDPITQFLAEHLGVPWFPGVAELPSTIRAVSVATPVAMHFGLTRSLLQQGLDVLLEKPIAETAAQATELRMVAEANQCILQIGHIERFNPAYTAGGTLLPFARTVRSVRTTRHPPRSSALDVVIDLMIHDLDLILHSLDSSVVELRASGRSCGLTAIDEAEVELTFSNGCRVYLDAHWGRDTEQDARCMVAELENDETWVIDFRRRMTYRKEPGSSTGPLPADGHTLPFPMQRIQEDTLSLQLAAFLDACRNRSLPRVTPAEGNAALELAHCIRQQILRPCP, MGSDKIHHHHHHMAAPDTPPDSPPPISAVEMPSGKDAGTENFPVGSVLLPARLRPHVARFYAFARAIDDIADSPDLDAAAKIDRLQGFEEAITGRDTTDPAYAKGHALRVSLEATGVPAIHGVELIAAFKQDAVKGRYATWAEMMDYCRLSAAPVGRYLIDLHGGSRAGYASSDALCVALQVINHLQDCQDDFRVLDRVYLPADWLAAEGASVSDLDRAACTPGLRRVLDRCLEGTRRLLDAARPLPGDIIDRRLGLEAAVIVSIAQTLTGRLARQDPLAQRVKLGKAATAFCAARACAAYLMVPGAYR, MGSDKIHHHHHHMADAETIRSYDQLAREQAAFQRHLQPTAIYRLVETFFHPGRPTIDIGSGSGRDVAWLNQHGYQAIGLEPSAGMIAEARAAYAGIEIRQGALPDLAGIADASFDNVLCVAVLMHLPAAELIGAVINLARILRPGGRLIVSYRTPPPEGERAHDGRLYTVIPPARLMLLLESSGLQILFSEDLPDPHRPSIRWFNMVAEKSDRDVSRGLERVGSVLAHDRKTATYKLALLRALCIIARNAFNLVEWSSDVVYVLLRAIATQWLIFYWPLLTSSEFIAQIRGEHPLSPKPIAFRPAITSLAKQLGGAAGLYNVLRILEEDPHRYDDILKLIANTIRKGPVTYSGSIHSPIFSYRPGKSDTFGWVAVPIDIWLDICRFNHWIEDSIVLRWAYLTDELNRTADPGRYLSLLVAKPLHERDTQEVRQALNRSPELFCVWTGQRLGHGYEVDHVIPYSVWGNNDLWNLLPAHPRINQTKRDALPARSILLARREAIIDYWQRYAQIDVFQPRFAVQIHRALGCNLRHADWPKLAFAGLEEVVERTAIVRGLPRWSP, MGSDKIHHHHHHMADNFLSQEEVDALLRGVTNEQEDDTPALDPAGVREYNLATQERIVRGRMPTLEIINERFARLLRIGLFNFLRRTTEVSVGPVKISKYSEFIRNLVVPTNLNLVQMKPLRGTALMVFDPTLVFLIVDNLFGGDGRFHTRVEGRDFTQTEQRIIQRVLAIVFETYAKSWEPVYKLEFEYIRSEMNTQFANIATPNEVVVSTTFNIELGSASGEIHFCFPYSMIEPIRDLLTSPLQGEALGVDKRWVRLMTQQIQSAEVMLIADLAKAEMTLGDILNMKVGDVIPLSISEEIEAKVDNVPVMQCKYGVFNGQYALRVEKLLRSNSSEYVKGEVPDGD
